This note sets out measurements from the supplement of paper PMC10567573.

Sequences and labels used below:
B1: ZNF263 (parent)
chain: QRTHTGEKPYKCPECGEIFAHSSN
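Note: lentivirally expressed fusions sorted by FACS into six bins by GFP to DsRed ratio, PSI derived from sequencing read proportions per bin multiplied by bin number.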

In this series the parent is B1. The series is described as follows: protein stability index of a GFP-peptide fusion (GPS, HEK-293T) (PSI 1-6); higher = more stable. The settings on record: c terminus: a fixed tail appended.
Regarding QRTHTGEKPYKCPECGEIYAHSSN [F19Y], the protein stability index was determined as 3.7.

For QRTHTGEKPYKCPECGEIEAHSSN [F19E], the protein stability index was 4.25. The figure for QRTHTGEKPYKCPECGEINAHSSN [F19N] is 4.37; for QRTHTGEKPYKCPECGEIRAHSSN [F19R] it is 3.75.

Consider QRTHTGEKPYKCPECGEICAHSSN [F19C], for which the protein stability index amounted to 4.9.

QRTHTGEKPYKCPECGEIPAHSSN [F19P]: the protein stability index amounted to 3.75. Then QRTHTGEKPYKCPECGEIFKHSSN [A20K], with 3.25; and QRTHTGEKPYKCPECGEIFPHSSN [A20P], with 3.53. Turning to QRTHTGEKPYKCPECGEIFMHSSN [A20M], the protein stability index is 3.25. The figure for QRTHTGEKPYKCPECGEIFFHSSN [A20F] is 3.18. Regarding QRTHTGEKPYKCPECGEIFLHSSN [A20L], the protein stability index came out at 2.63.

Regarding QRTHTGEKPYKCPECGEIFDHSSN [A20D], the protein stability index came to 3.67. Then QRTHTGEKPYKCPECGEIFEHSSN [A20E], with 3.76. Then QRTHTGEKPYKCPECGEIFNHSSN [A20N], with 3.55; and QRTHTGEKPYKCPECGEIFCHSSN [A20C], with 3.75.

Take QRTHTGEKPYKCPECGEIFGHSSN [A20G]: the protein stability index amounted to 3.16. Then QRTHTGEKPYKCPECGEIFIHSSN [A20I], with 3.46; and QRTHTGEKPYKCPECGEIFHHSSN [A20H], with 3.45. The figure for QRTHTGEKPYKCGECGEIFAHSSN [P13G] is 3.71; for QRTHTGEKPYKCTECGEIFAHSSN [P13T] it is 3.34; for QRTHTGEKPYKCYECGEIFAHSSN [P13Y] it is 3.57. Then QRTHTGEKPYKCSECGEIFAHSSN [P13S], with 3.41; and QRTHTGEKPYKCMECGEIFAHSSN [P13M], with 2.71; and QRTHTGEKPYKCRECGEIFAHSSN [P13R], with 2.94. As to QRTHTGEKPYKCHECGEIFAHSSN [P13H], the protein stability index turned out to be 3.39. The figure for QRTHTGEKPYKCCECGEIFAHSSN [P13C] is 3.1; for QRTHTGEKPYKCVECGEIFAHSSN [P13V] it is 3.48; for QRTHTGEKPYKCLECGEIFAHSSN [P13L] it is 3.56. For QRTHTGEKPYKCNECGEIFAHSSN [P13N], the protein stability index amounted to 4.29. The figure for QRTHTGEKPYKCIECGEIFAHSSN [P13I] is 3.57; for QRTHTGEKPYKCEECGEIFAHSSN [P13E] it is 4.69.

For the variant QRTHTGEKPYKCDECGEIFAHSSN [P13D], the protein stability index was 4.34.

As for QRTHTGEKPYKCAECGEIFAHSSN [P13A], the protein stability index was found to be 3.78. The figure for QRTHTGEKPYKCFECGEIFAHSSN [P13F] is 2.52. Then QRTHTGEKPYKCKECGEIFAHSSN [P13K], with 3.59; and QRTHTGEKPYKCQECGEIFAHSSN [P13Q], with 3.67.

Take QRTHTGEKPYKCWECGEIFAHSSN [P13W]: the protein stability index is 2.71. Then QRTHTGEKPYKCPICGEIFAHSSN [E14I], with 3.25; and QRTHTGEKPYKCPMCGEIFAHSSN [E14M], with 3.82; and QRTHTGEKPYKCPRCGEIFAHSSN [E14R], with 3.77.

With QRTHTGEKPYKCPPCGEIFAHSSN [E14P], the protein stability index stood at 3.52. The figure for QRTHTGEKPYKCPGCGEIFAHSSN [E14G] is 3.31. On to QRTHTGEKPYKCPVCGEIFAHSSN [E14V], for which the protein stability index is 2.95. As for QRTHTGEKPYKCPNCGEIFAHSSN [E14N], the protein stability index amounted to 4.24. The figure for QRTHTGEKPYKCPFCGEIFAHSSN [E14F] is 3.09; for QRTHTGEKPYKCPTCGEIFAHSSN [E14T] it is 3.12; for QRTHTGEKPYKCPWCGEIFAHSSN [E14W] it is 2.63. Then QRTHTGEKPYKCPSCGEIFAHSSN [E14S], with 3.77. With QRTHTGEKPYKCPHCGEIFAHSSN [E14H], the protein stability index amounted to 3.82. Then QRTHTGEKPYKCPQCGEIFAHSSN [E14Q], with 2.73; and QRTHTGEKPYKCPCCGEIFAHSSN [E14C], with 3.71.

As to QRTHTGEKPYKCPYCGEIFAHSSN [E14Y], the protein stability index came out at 2.97.

Take QRTHTGEKPYKCPDCGEIFAHSSN [E14D]: the protein stability index was determined as 3.1. Then QRTHTGEKPYKCPKCGEIFAHSSN [E14K], with 3.75. Then QRTHTGEKPYKCPACGEIFAHSSN [E14A], with 4.22. On to QRTHTGEKPYKCPLCGEIFAHSSN [E14L], for which the protein stability index was 2.34.

As to QRTHTGEKPYECPECGEIFAHSSN [K11E], the protein stability index was determined as 3.99. Take QRTHTGEKPYFCPECGEIFAHSSN [K11F]: the protein stability index is 3.23. The figure for QRTHTGEKPYICPECGEIFAHSSN [K11I] is 3.1; for QRTHTGEKPYQCPECGEIFAHSSN [K11Q] it is 3.13; for QRTHTGEKPYRCPECGEIFAHSSN [K11R] it is 3.23. Then QRTHTGEKPYCCPECGEIFAHSSN [K11C], with 3.62; and QRTHTGEKPYLCPECGEIFAHSSN [K11L], with 3.39; and QRTHTGEKPYPCPECGEIFAHSSN [K11P], with 4.12. As for QRTHTGEKPYMCPECGEIFAHSSN [K11M], the protein stability index is 2.97. Then QRTHTGEKPYDCPECGEIFAHSSN [K11D], with 4.28; and QRTHTGEKPYACPECGEIFAHSSN [K11A], with 3.56; and QRTHTGEKPYGCPECGEIFAHSSN [K11G], with 3.54. The figure for QRTHTGEKPYTCPECGEIFAHSSN [K11T] is 2.98. Consider QRTHTGEKPYHCPECGEIFAHSSN [K11H], for which the protein stability index stood at 3.39. The figure for QRTHTGEKPYWCPECGEIFAHSSN [K11W] is 3.23; for QRTHTGEKPYSCPECGEIFAHSSN [K11S] it is 3.83. The figure for QRTHTGEKPYNCPECGEIFAHSSN [K11N] is 3.52; for QRTHTGEKPYYCPECGEIFAHSSN [K11Y] it is 3.03. The figure for QRTHTGEKPYVCPECGEIFAHSSN [K11V] is 3.17; for QRTHTGEKPYKCPECGEVFAHSSN [I18V] it is 3.56; for QRTHTGEKPYKCPECGEQFAHSSN [I18Q] it is 3.91.

For the variant QRTHTGEKPYKCPECGEDFAHSSN [I18D], the protein stability index is 3.52. Then QRTHTGEKPYKCPECGETFAHSSN [I18T], with 3.9; and QRTHTGEKPYKCPECGEGFAHSSN [I18G], with 4.05; and QRTHTGEKPYKCPECGEHFAHSSN [I18H], with 3.29. For the variant QRTHTGEKPYKCPECGEFFAHSSN [I18F], the protein stability index was determined as 2.97. The figure for QRTHTGEKPYKCPECGERFAHSSN [I18R] is 3; for QRTHTGEKPYKCPECGESFAHSSN [I18S] it is 2.53. Then QRTHTGEKPYKCPECGELFAHSSN [I18L], with 3.18; and QRTHTGEKPYKCPECGEYFAHSSN [I18Y], with 3.48; and QRTHTGEKPYKCPECGEWFAHSSN [I18W], with 2.41. As to QRTHTGEKPYKCPECGENFAHSSN [I18N], the protein stability index was determined as 3.79. Then QRTHTGEKPYKCPECGEAFAHSSN [I18A], with 3.48; and QRTHTGEKPYKCPECGEMFAHSSN [I18M], with 3.73; and QRTHTGEKPYKCPECGEPFAHSSN [I18P], with 3.43. The figure for QRTHTGEKPYKCPECGEEFAHSSN [I18E] is 3.99. The figure for QRTHTGEKPYKCPECGECFAHSSN [I18C] is 3.87; for QRTHTGEKPYKCPECGEKFAHSSN [I18K] it is 3.83.
